Numbering of substitutions follows the chain as printed. Names may count otherwise.

Data on three proteins can be found in PMC3252339, “Human PAPS Synthase Isoforms Are Dynamically Regulated Enzymes with Access to Nucleus and Cytoplasm” (PLoS ONE, 2012).

The series concerns the molecule itself. The series is described as follows: SEC; analytical gel filtration on Superdex 200 10/300 GL in 20 mM Tris (pH 7.3), 180 mM NaCl, 0.1 mM EDTA, 1 mM DTT; loaded at 2-10 µM, at most three-fold diluted during the run; dimer to monomers.

B1: PAPS synthase 1 wild type (enzyme, human, UniProt O43252 1-624, looked up)
chain: MEIPGSLCKKVKLSNNAQNWGMQRATNVTYQAHHVSRNKRGQVVGTRGGFRGCTVWLTGLSGAGKTTVSMALEEYLVCHGIPCYTLDGDNIRQGLNKNLGFSPEDREENVRRIAEVAKLFADAGLVCITSFISPYTQDRNNARQIHEGASLPFFEVFVDAPLHVCEQRDVKGLYKKARAGEIKGFTGIDSEYEKPEAPELVLKTDSCDVNDCVQQVVELLQERDIVPVDASYEVKELYVPENKLHLAKTDAETLPALKINKVDMQWVQVLAEGWATPLNGFMREREYLQCLHFDCLLDGGVINLSVPIVLTATHEDKERLDGCTAFALMYEGRRVAILRNPEFFEHRKEERCARQWGTTCKNHPYIKMVMEQGDWLIGGDLQVLDRVYWNDGLDQYRLTPTELKQKFKDMNADAVFAFQLRNPVHNGHALLMQDTHKQLLERGYRRPVLLLHPLGGWTKDDDVPLMWRMKQHAAVLEEGVLNPETTVVAIFPSPMMYAGPTEVQWHCRARMVAGANFYIVGRDPAGMPHPETGKDLYEPSHGAKVLTMAPGLITLEIVPFRVAAYNKKKKRMDYYDSEHHEDFEFISGTRMRKLAREGQKPPEGFMAPKAWTVLTEYYKSLEKA
notes: also called PAPSS1; PAPSS1 wild type; source: E. coli expression strains, purified (GSH sepharose, PreScission digestion, Superdex 200)
With B1, the “stoichiometry N” value was found to be 2.

B2: PAPS synthase 1 L119K (enzyme, human, UniProt O43252 1-624, looked up)
chain: B1 chain with L119K
notes: Same construct as m1 with the point mutation made by site-directed mutagenesis; the oligonucleotides are in Information S1; also called PAPSS1 L119K; source: E. coli expression strains, purified (GSH sepharose, PreScission digestion, Superdex 200)
For B2, the Kd is less than 1000 nM and the “stoichiometry N” value is 2.

B3: PAPS synthase 1 RR111,112AA (enzyme, human, UniProt O43252 1-624, looked up)
chain: B1 chain with R111A, R112A
notes: Same construct as m1 with the double mutation made by site-directed mutagenesis; the oligonucleotides are in Information S1; also called PAPSS1 RR111,112AA; source: E. coli expression strains, purified (GSH sepharose, PreScission digestion, Superdex 200)
Take B3: the Kd was less than 1000 nM and the “stoichiometry N” value turned out to be 2.
